Data: patent US20250085286A1

Target: HRP-labelled monoclonal antibody targeting PRO-C22
Experiment: competitive ELISA, standard peptide against coated Biotin-… for the HRP-mAb

Sequence of HRP-labelled monoclonal antibody targeting PRO-C22 (VH, as listed by the source limits assumed, chain 1 of 2): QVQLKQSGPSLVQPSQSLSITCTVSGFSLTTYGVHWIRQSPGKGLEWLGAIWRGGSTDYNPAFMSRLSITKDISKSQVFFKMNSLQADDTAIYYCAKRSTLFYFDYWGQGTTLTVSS
Sequence of HRP-labelled monoclonal antibody targeting PRO-C22 (VL, as listed by the source limits assumed, chain 2 of 2): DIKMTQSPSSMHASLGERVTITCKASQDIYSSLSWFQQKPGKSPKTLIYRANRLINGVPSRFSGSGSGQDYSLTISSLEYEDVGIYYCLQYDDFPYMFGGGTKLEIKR

- IC50: 8.15 ng/mL
Binder: GPPGPPGQCDPSQCAYFASLAARPGNVKGP [30 AA standard peptide …]
